Source: patent US6451970B1, “Peptide derivatives” (Novo Nordisk A/S, priority 1996, dated 2002)

Assays:
porcine albumin = porcine albumin (Sus scrofa, UniProt P08835); experiment: Binding to porcine albumin, in vitro assay; settings: relative to the reference compound EXA
Procedure: The binding to porcine albumin was determined in an in vitro assay. The values given in Table 1 under the heading “Albumin binding” are relative to the reference compound EXA.

[1] = pH 7.3
Procedure: The lipophilicity of the insulin derivatives relative to human insulin, k″rel, was measured on a LiChrosorb RP18 (5 μm, 250×4 mm) HPLC column by isocratic elution at 40° C. using mixtures of A) 0.1 M sodium phosphate buffer, pH 7.3, containing 10% acetonitrile, and B) 50% acetonitrile in water as eluents. The elution was monitored by following the UV absorption of the eluate at 214 nm. Void time, t0, was found by injecting 0.1 mM sodium nitrate. Retention time for human insulin, thuman, was adjusted to at least 2t0 by varying the ratio between the A and B solutions. k′rel=(tderivative−t0)/(thuman−t0).

[2] = pig, in vivo, sc
Source text: Determination of Disappearance Half-life, T50%, from the Injection Site after Subcutaneous Injection of an Insulin Derivative in Pigs.

Sequence of porcine albumin (P08835 25-607): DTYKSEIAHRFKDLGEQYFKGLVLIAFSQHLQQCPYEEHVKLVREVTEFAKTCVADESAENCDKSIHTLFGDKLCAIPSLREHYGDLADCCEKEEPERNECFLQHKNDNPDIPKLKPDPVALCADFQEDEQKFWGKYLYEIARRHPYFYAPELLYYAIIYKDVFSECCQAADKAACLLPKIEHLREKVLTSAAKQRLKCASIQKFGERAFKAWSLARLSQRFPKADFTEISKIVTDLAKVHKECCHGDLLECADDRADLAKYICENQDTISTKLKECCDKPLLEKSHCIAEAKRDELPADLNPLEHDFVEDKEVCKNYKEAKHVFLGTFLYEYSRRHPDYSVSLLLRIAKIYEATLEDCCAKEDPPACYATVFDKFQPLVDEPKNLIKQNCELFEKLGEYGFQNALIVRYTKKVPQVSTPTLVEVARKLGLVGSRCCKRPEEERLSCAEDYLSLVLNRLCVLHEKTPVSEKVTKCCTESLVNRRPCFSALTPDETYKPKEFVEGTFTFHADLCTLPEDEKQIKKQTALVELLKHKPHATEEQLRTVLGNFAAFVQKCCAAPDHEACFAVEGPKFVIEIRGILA

| Albumin binding (porcine albumin) | Substance | Lipophilicity [1] | T50% [2] [h] |
| --- | --- | --- | --- |
| 5 | N^εB29-(CO—(CH2)14—COOH) des(B30) Human Insulin [EX2] | 2.3 | 10 |
| 36 | N^εB29-(CO—(CH2)16—COOH) des(B30) Human Insulin [EX4] | 7.2 | 17.1 |
| 51 | N^εB29-(CO—(CH2)18—COOH) des(B30) Human Insulin [EX3] | 17 | 18 |
| 0.7 | N^εB29-(CO—(CH)12—COOH) des(B30) human insulin [EX1] | 1.4 | 5 |
| 0.9 | N^εB29-hexadecanoyl desB30 insulin [EXB, reference compound] | 346 | 12 |
| 1 | N^εB29-tetradecanoyl desB30 insulin [EXA, reference compound] | 113 | 14 |
